The numbers were not newly measured in PMC3471383, which cites them from elsewhere.

As a reminder, the Kd is the constant that tells how readily two partners part at equilibrium.

The target in this data set is FcγRI (Homo sapiens) (UniProt P12314).
Sequence of UniProt P12314 (P12314 16-292): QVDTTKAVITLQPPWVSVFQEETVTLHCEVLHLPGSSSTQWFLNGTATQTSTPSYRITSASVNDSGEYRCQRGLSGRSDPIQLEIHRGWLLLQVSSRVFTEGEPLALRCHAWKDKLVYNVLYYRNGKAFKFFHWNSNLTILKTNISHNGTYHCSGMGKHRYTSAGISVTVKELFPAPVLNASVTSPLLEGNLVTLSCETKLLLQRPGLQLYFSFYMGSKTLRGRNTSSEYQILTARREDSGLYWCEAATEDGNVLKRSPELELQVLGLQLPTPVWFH

On to SAP (from UniProt P02743), for which the Kd is 500 nM.
